# From US20110008356A1
# Molecular target: Human IL-17RC:Fc (human) (UniProt Q8NAC3)
# Test: SPR (BIAcore 3000), receptor:Fc captured by anti-human Fc, cytokine as analyte, koff/kon, 1:1 Langmuir fit
# Chain of Human IL-17A (Q16552 20-155 limits assumed): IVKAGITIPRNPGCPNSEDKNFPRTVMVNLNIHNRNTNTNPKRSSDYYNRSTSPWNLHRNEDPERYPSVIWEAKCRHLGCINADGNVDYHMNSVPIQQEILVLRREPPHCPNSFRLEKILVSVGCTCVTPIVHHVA
row,Kd [nM],Substance
1,0.03,Mouse IL-17F (from UniProt Q7TNI7 29-161) (ligand)
2,0.05,Human IL-17A (from UniProt Q16552 20-155) (ligand)
